Tests used:
HLA-A*11:01 [1] = experiment: IEDB peptide-MHC binding, cellular MHC/competitive/fluorescence; ≥ and ≤ were set here for values at or beyond the usual limits of such assays
HLA-A*68:01 [2] = experiment: as above
HLA-A*31:01 [3] = experiment: IEDB peptide-MHC binding, purified MHC/competitive/radioactivity; ≥ and ≤ were set here for values at or beyond the usual limits of such assays
HLA-A*33:01 [4] = experiment: as above
HLA-B*07:02 = experiment: IEDB peptide-MHC binding, cellular MHC/competitive/fluorescence; ≥ and ≤ were set here for values at or beyond the usual limits of such assays
HLA-B*51:01 = experiment: as above
HLA-B*35:01 = experiment: IEDB peptide-MHC binding, purified MHC/competitive/radioactivity; ≥ and ≤ were set here for values at or beyond the usual limits of such assays
HLA-B*53:01 = experiment: as above
HLA-B*54:01 = experiment: as above
HLA-A*11:01 [5] = experiment: as above; conditions: source organism: Mammarenavirus lassaense
HLA-A*03:01 [6] = experiment: IEDB peptide-MHC binding, cellular MHC/competitive/fluorescence; ≥ and ≤ were set here for values at or beyond the usual limits of such assays; conditions: source organism: Mammarenavirus juninense
HLA-A*31:01 [7] = experiment: as above
HLA-A*33:01 [8] = experiment: as above
HLA-A*24:02 [9] = experiment: as above; conditions: source organism: Vaccinia virus WR
HLA-A*01:01 [10] = experiment: IEDB peptide-MHC binding, purified MHC/competitive/radioactivity; ≥ and ≤ were set here for values at or beyond the usual limits of such assays; conditions: source organism: Vaccinia virus WR
HLA-A*02:01 = experiment: as above; conditions: source organism: Vaccinia virus WR
HLA-A*02:02 [11] = experiment: as above; conditions: source organism: Vaccinia virus WR
HLA-A*02:03 [12] = experiment: as above; conditions: source organism: Vaccinia virus WR
HLA-A*02:06 = experiment: as above; conditions: source organism: Vaccinia virus WR
HLA-A*23:01 [13] = experiment: as above; conditions: source organism: Vaccinia virus WR
HLA-A*26:01 [14] = experiment: as above; conditions: source organism: Vaccinia virus WR
HLA-A*29:02 [15] = experiment: as above; conditions: source organism: Vaccinia virus WR
HLA-A*30:02 [16] = experiment: as above; conditions: source organism: Vaccinia virus WR
HLA-A*68:02 [17] = experiment: as above; conditions: source organism: Vaccinia virus WR
HLA-A*68:01 [18] = experiment: as above
HLA-A*01:01 [19] = experiment: IEDB peptide-MHC binding, cellular MHC/competitive/fluorescence; ≥ and ≤ were set here for values at or beyond the usual limits of such assays; conditions: source organism: Vaccinia virus WR
HLA-A*02:02 [20] = experiment: as above; conditions: source organism: Vaccinia virus WR
HLA-A*02:03 [21] = experiment: as above; conditions: source organism: Vaccinia virus WR
HLA-A*23:01 [22] = experiment: as above; conditions: source organism: Vaccinia virus WR
HLA-A*26:01 [23] = experiment: as above; conditions: source organism: Vaccinia virus WR
HLA-A*29:02 [24] = experiment: as above; conditions: source organism: Vaccinia virus WR
HLA-A*30:02 [25] = experiment: as above; conditions: source organism: Vaccinia virus WR
HLA-A*68:02 [26] = experiment: as above; conditions: source organism: Vaccinia virus WR
HLA-A*24:02 [27] = experiment: IEDB peptide-MHC binding, purified MHC/competitive/radioactivity; ≥ and ≤ were set here for values at or beyond the usual limits of such assays; conditions: source organism: Vaccinia virus WR
HLA-A*03:01 [28] = experiment: as above; conditions: source organism: Vaccinia virus WR
HLA-B*27:05 = experiment: as above; conditions: source organism: Mammarenavirus choriomeningitidis
[29] = source organism: Mammarenavirus guanaritoense
[30] = source organism: Mammarenavirus lassaense
[31] = source organism: Mammarenavirus machupoense
[32] = source organism: Mammarenavirus juninense
[33] = source organism: Vaccinia virus WR

TTSLFLHLV showed an IC50 (HLA-A*11:01 [1]; [29]) of 15.4 µM, an IC50 (HLA-A*68:01 [2]; [29]) of 11.1 µM and an IC50 (HLA-A*31:01 [3]; [29]) of 0.726 µM. The IC50 (HLA-A*33:01 [4]; [29]) was 2.27 µM.
Work on MCISLSTAI yielded an IC50 (HLA-B*07:02; [30]) of 24 µM, an IC50 (HLA-B*51:01; [30]) of 6.76 µM and an IC50 (HLA-B*35:01; [30]) of 0.211 µM. It also gave an IC50 (HLA-B*53:01; [30]) of 1.43 µM and an IC50 (HLA-B*54:01; [30]) of 0.192 µM.
Sequence MLNNSFYYM has an IC50 (HLA-B*07:02; [31]) of 29.7 µM, an IC50 (HLA-B*51:01; [31]) of 6.95 µM and an IC50 (HLA-B*35:01; [31]) of 0.501 µM. For the same sequence, the IC50 (HLA-B*53:01; [31]) was 0.851 µM and the IC50 (HLA-B*54:01; [31]) was 4.96 µM.
ALMSIISTFH showed an IC50 (HLA-A*68:01 [2]; [30]) of 23.8 µM, an IC50 (HLA-A*11:01 [5]) of 0.618 µM and an IC50 (HLA-A*31:01 [3]; [30]) of 3.68 µM. For the same sequence, the IC50 (HLA-A*33:01 [4]; [30]) was 3.61 µM.
ACQEAVKLK showed an IC50 (HLA-A*03:01 [6]) of 16.7 µM, an IC50 (HLA-A*11:01 [1]; [32]) of 6.7 µM and an IC50 (HLA-A*31:01 [7]; [32]) of at least 70 µM. For the same sequence, the IC50 (HLA-A*33:01 [8]; [32]) was at least 70 µM and the IC50 (HLA-A*68:01 [2]; [32]) was at least 70 µM.
Sequence SQIFNIISYI has an IC50 (HLA-A*24:02 [9]) of 9.51 µM, an IC50 (HLA-A*01:01 [10]) of 0.801 µM and an IC50 (HLA-A*02:01) of 0.111 µM. It also gave an IC50 (HLA-A*02:02 [11]) of 0.062 µM, an IC50 (HLA-A*02:03 [12]) of 0.181 µM and an IC50 (HLA-A*02:06) of 0.023 µM. The IC50 (HLA-A*23:01 [13]) was 2.38 µM, the IC50 (HLA-A*26:01 [14]) was 0.397 µM and the IC50 (HLA-A*29:02 [15]) was 1.15 µM. It also gave an IC50 (HLA-A*30:02 [16]) of 0.671 µM and an IC50 (HLA-A*68:02 [17]) of 0.048 µM.
Work on TSFYLISIFL yielded an IC50 (HLA-A*11:01 [1]; [30]) of 8.09 µM, an IC50 (HLA-A*31:01 [7]; [30]) of at least 70 µM and an IC50 (HLA-A*33:01 [8]; [30]) of 31.1 µM. The IC50 (HLA-A*68:01 [18]; [30]) was 1.91 µM.
With LQQNNSFII the IC50 (HLA-A*01:01 [19]) was 40.2 µM, the IC50 (HLA-A*02:02 [20]) was 11.7 µM and the IC50 (HLA-A*02:03 [21]) was 5.17 µM. It also gave an IC50 (HLA-A*23:01 [22]) of 8.91 µM, an IC50 (HLA-A*26:01 [23]) of 11.5 µM and an IC50 (HLA-A*29:02 [24]) of 18.6 µM. The IC50 (HLA-A*30:02 [25]) was 40.8 µM, the IC50 (HLA-A*68:02 [26]) was 69.8 µM and the IC50 (HLA-A*02:01) was 1.59 µM. For the same sequence, the IC50 (HLA-A*02:06) was 0.423 µM and the IC50 (HLA-A*24:02 [27]) was 2.36 µM.
With LLTACTIFYI the IC50 (HLA-A*11:01 [1]; [33]) was 18.8 µM, the IC50 (HLA-A*33:01 [8]; [33]) was 7.39 µM and the IC50 (HLA-A*02:01) was 0.0057 µM. It also gave an IC50 (HLA-A*03:01 [28]) of 0.829 µM, an IC50 (HLA-A*31:01 [3]; [33]) of 0.627 µM and an IC50 (HLA-A*68:01 [18]; [33]) of 4.37 µM.
Sequence IIVLIIITSI has an IC50 (HLA-B*27:05) of 1.88 µM.
